The values below come from US20250154271A1 (published 2025).

Assay [1] concerns the target T1, canine NGF (canine, UniProt Q29074 110-229 (pig entry), limits assumed).
T1 construct: also called cNGF; canine β-NGF
T1 chain: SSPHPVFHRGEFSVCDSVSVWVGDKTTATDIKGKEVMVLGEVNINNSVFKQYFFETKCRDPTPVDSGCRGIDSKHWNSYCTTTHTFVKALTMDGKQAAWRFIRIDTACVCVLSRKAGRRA
The experiment in a line: SPR Biacore, NGF amine-coupled to chip. On the procedure: (§1) Antibody binding affinities of the antibodies against canine NGF were determined by surface plasmon resonance (SPR) on a Biacore system (Biocore Life Sciences (GE Healthcare), Uppsala, Sweden). Immobilization of canine and rat NGF were obtained by amine coupling 5 μg/mL NGF using N-hydroxysuccinimide (NHS)/1-Ethyl-3-(3-dimethylaminopropyl) carbodiimide (EDC) chemistry. Chips were quenched with ethanolamine and the affinity with which all candidate mAbs bound to the immobilized NGF was evaluated. Various concentrations of canine and felinized anti-NGF antibodies were injected over the NGF surfaces while the association of the antibody to the antigen and the dissociation of the formed complex were monitored in real time. Kinetic analysis was performed to obtain the equilibrium dissociation constant (KD).
(SPR reads the build-up and loss of mass on a sensor chip optically.)

Assay [2] addresses T2, rat NGF (rat, UniProt P25427 122-241).
T2 construct: Immobilised on the Biacore chip by amine coupling; also called rN
The experiment in a line: SPR Biacore, NGF amine-coupled to chip. How it is done: as §1

T2 sequence (P25427 122-241 limits assumed): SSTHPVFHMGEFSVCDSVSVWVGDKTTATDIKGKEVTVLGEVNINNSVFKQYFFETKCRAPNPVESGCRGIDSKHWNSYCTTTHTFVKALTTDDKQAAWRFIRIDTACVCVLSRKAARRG

B1: fel48L2 chimera (antibody, V domains shown)
VH: EVQLVESGGDLVKPGGSLRLSCVASGFTFSTYGINWVRQAPGKGLQWVAYISSGGSSTYYADPVKGRFTISRDDAKNMLYLQMNSLRAEDTAIYYCAGSRYTYAYGGGYEFHFWGQGTLVTVSS
VL: QAVLNQPASVSGALGQKVTISCSGSTMDIDIFGVSWYQQLPGKAPKLLVDSDGDRPSGIPDRFSGSRSGNSGTLTITGLQAEDEADYHCQSGDSTLGALAIFGGGTHVTVLG
notes: Canine variable domains on feline constant regions
A word on the Kd: it is a measure of binding affinity in units of concentration. Usually koff stands for the first-order rate constant of dissociation. A word on the kon: it is the second-order rate constant of association. Lower therefore signals slower complex formation. In assay [1], B1 returned a Kd of 6.25 pM, a koff of 2.64e-06 s⁻¹ and a kon of 471000 M⁻¹ s⁻¹. In assay [2], this molecule registered a Kd of 0.285 pM, a koff of 1.1e-07 s⁻¹ and a kon of 387000 M⁻¹ s⁻¹.
